Laboratory results from patent US20240261333A1, “NOVEL TARGETS FOR ENHANCING ANTI-TUMOR IMMUNITY” (THE BROAD INSTITUTE, INC., priority 2021, published 2024).

T1: B3GNT2 (Homo sapiens, UniProt Q9NY97)
T1 construct: The respective ORFs of candidate genes [CD274 (NM_014143), MCL1 (NM_021960), JUNB (NM_002229), and B3GNT2 (NM_006577)] were synthesized; expressed in transfected cells; host or cells: A375 melanoma cells (lentiviral ORF overexpression)
T1 sequence (Q9NY97 1-397): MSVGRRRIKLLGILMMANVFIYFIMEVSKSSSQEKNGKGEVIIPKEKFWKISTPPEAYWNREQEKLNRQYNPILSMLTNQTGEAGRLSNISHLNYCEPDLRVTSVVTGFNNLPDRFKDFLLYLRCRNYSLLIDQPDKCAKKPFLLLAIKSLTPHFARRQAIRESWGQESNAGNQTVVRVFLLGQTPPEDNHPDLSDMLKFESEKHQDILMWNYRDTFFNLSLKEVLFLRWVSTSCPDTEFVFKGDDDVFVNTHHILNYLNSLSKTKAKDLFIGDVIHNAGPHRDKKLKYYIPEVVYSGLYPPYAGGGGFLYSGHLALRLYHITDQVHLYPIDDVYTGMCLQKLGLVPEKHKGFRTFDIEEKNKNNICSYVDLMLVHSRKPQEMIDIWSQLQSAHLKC


Molecular target: T1, B3GNT2
Experiment: Co-IP of FLAG-tagged B3GNT2 followed by mass spectrometry
Format: cell-based
Parameters: C-term IgG / C-term flag: unit not given here
Procedure, shortened: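 Co-purifying proteins were identified by fractionated nano-LC–MS/MS on an Orbitrap Elite, run data-dependent. Beforehand, lysates in 1% Triton X-100/HEPES buffer were incubated overnight at 4° C with anti-FLAG or […] and pulled down on Protein A/G magnetic beads for 4 h. Duplicate biological replicates.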

[1] = Co-IP followed by mass spectrometry of B3GNT2, C-term tag, FLAG pull-down
[2] = Co-IP followed by mass spectrometry of B3GNT2, C-term tag, IgG pull-down
[3] = Co-IP followed by mass spectrometry of B3GNT2, N-term tag, FLAG pull-down
[4] = Co-IP followed by mass spectrometry of B3GNT2, N-term tag, IgG pull-down

C-term flag [1]	C-term IgG [2]	N-term FLAG [3]	N-term IgG [4]	C-term flag (Co-IP with FLAG antibody, C-terminally FLAG-tagged B3GNT2, mass spectrometry count, unit not given)	N-term FLAG (Co-IP with FLAG antibody, N-terminally FLAG-tagged B3GNT2, mass spectrometry count, unit not given)	C-term IgG (Co-IP with IgG control antibody, C-terminally FLAG-tagged B3GNT2, mass spectrometry count, unit not given)	N-term IgG (Co-IP with IgG control antibody, N-terminally FLAG-tagged B3GNT2, mass spectrometry count, unit not given)	Molecule
8	10	17	9					TGM1 (protein) MMDGPRSDVGRWGGNPLQPPTTPSPEPEPEPDGRSRRGGGRSFWARCCGCCSCRNAADDDWGPEPSDSRGRGSSSGTRRPGSRGSDSRRPVSRGSGVNAAGDGTIREGMLVVNGVDLLSSRSDQNRREHHTDEYEYDELIVRRGQPFHMLLLLSRTYESSDRITLELLIGNNPEVGKGTHVIIPVGKGGSGGWKAQVVKASGQNLNLRVHTSPNAIIGKFQFTVRTQSDAGEFQLPFDPRNEIYILFNPWCPEDIVYVDHEDWRQEYVLNESGRIYYGTEAQIGERTWNYGQFDHGVLDACLYILDRRGMPYGGRGDPVNVSRVISAMVNSLDDNGVLIGNWSGDYSRGTNPSAWVGSVEILLSYLRTGYSVPYGQCWVFAGVTTTVLRCLGLATRTVTNFNSAHDTDTSLTMDIYFDENMKPLEHLNHDSVWNFHVWNDCWMKRPDLPSGFDGWQVVDATPQETSSGIFCCGPCSVESIKNGLVYMKYDTPFIFAEVNSDKVYWQRQDDGSFKIVYVEEKAIGTLIVTKAISSNMREDITYLYKHPEGSDAERKAVETAAAHGSKPNVYANRGSAEDVAMQVEAQDAVMGQDLMVSVMLINHSSSRRTVKLHLYLSVTFYTGVSGTIFKETKKEVELAPGASDRVTMPVAYKEYRPHLVDQGAMLLNVSGHVKESGQVLAKQHTFRLRTPDLSLTLLGAAVVGQECEVQIVFKNPLPVTLTNVVFRLEGSGLQRPKILNVGDIGGNETVTLRQSFVPVRPGPRQLIASLDSPQLSQVHGVIQVDVAPAPGDGGFFSDAGGDSHLGETIPMASRGGA
4	0	0	0					SPARC (protein) APQQEALPDETEVVEETVAEVTEVSVGANPVQVEVGEFDDGAEETEEEVVAENPCQNHHCKHGKVCELDENNTPMCVCQDPTSCPAPIGEFEKVCSNDNKTFDSSCHFFATKCTLEGTKKGHKLHLDYIGPCKYIPPCLDSELTEFPLRMRDWLKNVLVTLYERDEDNNLLTEKQKLRVKKIHENEKRLEAGDHPVELLARDFEKNYNMYIFPVHWQFGQLDQHPIDGYLSHTELAPLRAPLIPMEHCTTRFFETCDLDNDKYIALDEWAGCFGIKQKDIDKDLVI
0	0	4	0					PSMA3 (protein) SSIGTGYDLSASTFSPDGRVFQVEYAMKAVENSSTAIGIRCKDGVVFGVEKLVLSKLYEEGSNKRLFNVDRHVGMAVAGLLADARSLADIAREEASNFRSNFGYNIPLKHLADRVAMYVHAYTLYSAVRPFGCSFMLGSYSVNDGAQLYMIDPSGVSYGYWGCAIGKARQAAKTEIEKLQMKEMTCRDIVKEVAKIIYIVHDEVKDKAFELELSWVGELTNGRHEIVPKDIREEAEKYAKESLKEEDESDDDNM
3	0	0	2					PURA (protein) ADRDSGSEQGGAALGSGGSLGHPGSGSGSGGGGGGGGGGGGSGGGGGGAPGGLQHETQELASKRVDIQNKRFYLDVKQNAKGRFLKIAEVGAGGNKSRLTLSMSVAVEFRDYLGDFIEHYAQLGPSQPPDLAQAQDEPRRALKSEFLVRENRKYYMDLKENQRGRFLRIRQTVNRGPGLGSTQGQTIALPAQGLIEFRDALAKLIDDYGVEEEPAELPEGTSLTVDNKRFFFDVGSNKYGVFMRVSEVKPTYRNSITVPYKVWAKFGHTFCKYSEEMKKIQEKQREKRAACEQLHQQQQQQQEETAAATLLLQGEEEGEED
7	4	4	4					SYNPO (protein, UniProt Q8N3V7 1-929, looked up) Synaptopodin: MLGPHLPPPPLAPSEGRPTPCAFQIPDGSYRCLALEAEESSGEEGLQGEVGPTDLEEDEGVSRSGDDSACRVTQGTPQLPKALGIQPPSCSREEQGASQHDDRASQDWDVVKAGQMMTASPSPGPGPRVAQKPALGRSTSLTEKDLKEAKARSQQIAAQLTTPPSSNSRGVQLFNRRRQRVNEFTLESHGQRGQKPSQESLRVLPSSLPGHAPGLSLSSTSLPEPGPPRHPSPQSPDRGVPGHSMEGYSEEASLLRHLEKVASEEEEVPLVVYLKENAALLTANGLHLSQNREAQQSSPAPPPAEVHSPAADVNQNLASPSATLTTPTSNSSHNPPATDVNQNPPATVVPQSLPLSSIQQNSSEAQLPSNGTGPASKPSTLCADGQPQAPAEEVRCSTLLIDKVSTPATTTSTFSREATLIPSSRPPASDFMSSSLLIDIQPNTLVVSADQEMSGRAAATTPTKVYSEVHFTLAKPPSVVNRTARPFGIQAPGGTSQMERSPMLERRHFGEKAPAPQPPSLPDRSPRPQRHIMSRSPMVERRMMGQRSPASERRPLGNFTAPPTYTETLSTAPLASWVRSPPSYSVLYPSSDPKSSHLKGQAVPASKTGILEESMARRGSRKSMFTFVEKPKVTPNPDLLDLVQTADEKRRQRDQGEVGVEEEPFALGAEASNFQQEPAPRDRASPAAAEEVVPEWASCLKSPRIQAKPKPKPNQNLSEASGKGAELYARRQSRMEKYVIESSSHTPELARCPSPTMSLPSSWKYPTNAPGAFRVASRSPARTPPASLYHGYLPENGVLRPEPTKQPPYQLRPSLFVLSPIKEPAKVSPRAASPAKPSSLDLVPNLPKGALPPSPALPRPSRSSPGLYTSPGQDSLQPTAVSPPYGGDISPVSPSRAWSPRAKQAPRPSFSTRNAGIEAQVWKPSFCFK
9	2	10	3					SERPINB3 (protein) MNSLSEANTKFMFDLFQQFRKSKENNIFYSPISITSALGMVLLGAKDNTAQQIKKVLHFDQVTENTTGKAATYHVDRSGNVHHQFQKLLTEFNKSTDAYELKIANKLFGEKTYLFLQEYLDAIKKFYQTSVESVDFANAPEESRKKINSWVESQTNEKIKNLIPEGNIGSNTTLVLVNAIYFKGQWEKKFNKEDTKEEKFWPNKNTYKSIQMMRQYTSFHFASLEDVQAKVLEIPYKGKDLSMIVLLPNEIDGLQKLEEKLTAEKLMEWTSLQNMRETRVDLHLPRFKVEESYDLKDTLRTMGMVDIFNGDADLSGMTGSRGLVLSGVLHKAFVEVTEEGAEAAAATAVVGFGSSPTSTNEEFHCNHPFLFFIRQNKTNSILFYGRFSSP

Second part, the molecule before the results:

Molecule	C-term flag [1]	C-term IgG [2]	N-term FLAG [3]	N-term IgG [4]	C-term flag (Co-IP with FLAG antibody, C-terminally FLAG-tagged B3GNT2, mass spectrometry count, unit not given)	N-term FLAG (Co-IP with FLAG antibody, N-terminally FLAG-tagged B3GNT2, mass spectrometry count, unit not given)	C-term IgG (Co-IP with IgG control antibody, C-terminally FLAG-tagged B3GNT2, mass spectrometry count, unit not given)	N-term IgG (Co-IP with IgG control antibody, N-terminally FLAG-tagged B3GNT2, mass spectrometry count, unit not given)
CALML5 (protein) AGELTPEEEAQYKKAFSAVDTDGNGTINAQELGAALKATGKNLSEAQLRKLISEVDSDGDGEISFQEFLTAAKKARAGLEDLQVAFRAFDQDGDGHITVDELRRAMAGLGQPLPQEELDAMIREADVDQDGRVNYEEFARMLAQE	4	0	0	0				
ERLEC1 (protein) LPQLSDDIPFRVNWPGTEFSLPTTGVLYKEDNYVIMTTAHKEKYKCILPLVTSGDEEEEKDYKGPNPRELLEPLFKQSSCSYRIESYWTYEVCHGKHIRQYHEEKETGQKINIHEYYLGNMLAKNLLFEKEREAEEKEKSNEIPTKNIEGQMTPYYPVGMGNGTPCSLKQNRPRSSTVMYICHPESKHEILSVAEVTTCEYEVVILTPLLCSHPKYRFRASPVNDIFCQSLPGSPFKPLTLRQLEQQEEILRVPFRRNKEEDLQSTKEERFPAIHKSIAIGSQPVLTVGTTHISKLTDDQLIKEFLSGSYCFRGGVGWWKYEFCYGKHVHQYHEDKDSGKTSVVVGTWNQEEHIEWAKKNTARAYHLQDDGTQTVRCKESDSPHAVTVYMLEPHSCQYILGVESPVICKILDTADENGLLSLPN					3	0	0	0
NAP1L1 (protein) ADIDNKEQSELDQDLDDVEEVEEEETGEETKLKARQLTVQMMQNPQILAALQERLDGLVETPTGYIESLPRVVKRRVNALKNLQVKCAQIEAKFYEEVHDLERKYAVLYQPLFDKRFEIINAIYEPTEEECEWKPDEEDEISEELKEKAKIEDEKKDEEKEDPKGIPEFWLTVFKNVDLLSDMVQEHDEPILKHLKDIKVKFSDAGQPMSFVLEFHFEPNEYFTNEVLTKTYRMRSEPDDSDPFSFDGPEIMGCTGCQIDWKKGKNVTLKTIKKKQKHKGRGTVRTVTKTVSNDSFFNFFAPPEVPESGDLDDDAEAILAADFEIGHFLRERIIPRSVLYFTGEAIEDDDDDYDEEGEEADEEGEEEGDEENDPDYDPKKDQNPAEC	4	0	0	0				
LUC7L3 (protein, UniProt O95232 1-432, looked up) Luc7-like protein 3: MISAAQLLDELMGRDRNLAPDEKRSNVRWDHESVCKYYLCGFCPAELFTNTRSDLGPCEKIHDENLRKQYEKSSRFMKVGYERDFLRYLQSLLAEVERRIRRGHARLALSQNQQSSGAAGPTGKNEEKIQVLTDKIDVLLQQIEELGSEGKVEEAQGMMKLVEQLKEERELLRSTTSTIESFAAQEKQMEVCEVCGAFLIVGDAQSRVDDHLMGKQHMGYAKIKATVEELKEKLRKRTEEPDRDERLKKEKQEREEREKEREREREERERKRRREEEEREKERARDRERRKRSRSRSRHSSRTSDRRCSRSRDHKRSRSRERRRSRSRDRRRSRSHDRSERKHRSRSRDRRRSKSRDRKSYKHRSKSRDREQDRKSKEKEKRGSDDKKSSVKSGSREKQSEDTNTESKESDTKNEVNGTSEDIKSEGDTQSN	3	3	4	2				
